Numbering of substitutions follows the chain as printed.
What was measured:
Assay in all cases: SPR, KD relative to WT C2;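 further: biacore SPR at 37 °C, anti-C2 mAbs captured on anti-human IgG chips with alanine or serine point mutants of C2 as analyte, KD from 1:1 fit compared with wild-type C2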
human C2 I438A = molecular target: T1, human C2 I438A (human, UniProt P06681 21-752)
T1 sequence: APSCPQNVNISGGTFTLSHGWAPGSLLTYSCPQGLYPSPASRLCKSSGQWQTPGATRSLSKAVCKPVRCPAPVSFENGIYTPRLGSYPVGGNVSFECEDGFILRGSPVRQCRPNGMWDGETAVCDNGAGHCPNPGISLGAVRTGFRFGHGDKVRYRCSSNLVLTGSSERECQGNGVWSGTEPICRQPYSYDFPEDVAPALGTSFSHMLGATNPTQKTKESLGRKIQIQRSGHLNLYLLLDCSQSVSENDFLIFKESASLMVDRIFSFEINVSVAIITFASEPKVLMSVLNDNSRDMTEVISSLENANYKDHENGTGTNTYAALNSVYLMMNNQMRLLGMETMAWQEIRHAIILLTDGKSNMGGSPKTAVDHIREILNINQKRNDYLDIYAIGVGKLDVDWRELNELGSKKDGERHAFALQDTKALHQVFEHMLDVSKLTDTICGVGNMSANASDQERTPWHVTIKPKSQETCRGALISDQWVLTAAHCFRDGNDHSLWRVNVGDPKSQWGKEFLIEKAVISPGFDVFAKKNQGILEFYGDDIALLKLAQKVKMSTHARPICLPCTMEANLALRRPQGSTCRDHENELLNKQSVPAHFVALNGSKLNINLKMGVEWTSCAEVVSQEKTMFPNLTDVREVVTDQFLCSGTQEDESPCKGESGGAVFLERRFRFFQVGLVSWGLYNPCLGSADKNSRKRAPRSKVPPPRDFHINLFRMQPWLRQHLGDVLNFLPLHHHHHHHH

human C2 N424A = molecular target: T2, human C2 N424A (human, UniProt P06681 21-752)
T2 sequence: T1 sequence with N404A, A418I

human C2 V465A = molecular target: T3, human C2 V465A (human, UniProt P06681 21-752)
T3 sequence: T1 sequence with A418I, V445A

human C2 G414A = molecular target: T4, human C2 G414A (human, UniProt P06681 21-752)
T4 sequence: T1 sequence with G394A, A418I

B1: RF16-242 (antibody, human IgG4 S228P, lambda, V domains shown)
VH: EVQLLQSGAEVKKPGESLKISCKGSGYSFTSYWIGWVRQMPGKGLEWMGIIYPGDSDTRYSPSFQGQVTISADKSISTAYLQWSSLKASDTAMYYCARRGHYGDYFDYWGQGTLVTVSS
VL: SYELTQPPSVSVSPGQTARITCSGDALPKKYAYWYHQKSGQAPVLVIYEDRRRPSEIPERFSGSSSGTMATLTITGAQVEDEGVYFCYSRDRAGNQRVFGGGTQLTVLG
notes: pH-dependent anti-C2 antibody from a phage display library
Fold diff (human C2 I438A): 1 fold | Fold diff (human C2 N424A): 1 fold | Fold diff (human C2 V465A): 2 fold | Fold diff (human C2 G414A): 1 fold

— patent US20220332804A1 (CSL INNOVATION, published 2022)
